The labels stand for the following.
B1: Nectin-3 (Mus musculus), Q9JLB9 (parent)
chain: MARTPGPAPLCPGGGKAQLSSAFPPAAGLLLPAPTPPPLLLLLIPLLLFSRLCGALAGSIIVEPHVTAVWGKNVSLKCLIEVNETITQISWEKIHGKSTQTVAVHHPQYGFSVQGDYQGRVLFKNYSLNDATITLHNIGFSDSGKYICKAVTFPLGNAQSSTTVTVLVEPTVSLIKGPDSLIDGGNETVAAVCVAATGKPVAQIDWEGDLGEMESSTTSFPNETATIVSQYKLFPTRFARGRRITCVVKHPALEKDIRYSFILDIQYAPEVSVTGYDGNWFVGRKGVNLKCNADANPPPFKSVWSRLDGQWPDGLLASDNTLHFVHPLTVNYSGVYVCKVSNSLGQRSDQKVIYISDPPTTTTLQPTVQWHSSPADVQDIATEHKKLPFPLSTLATLKDDTIGTIIASVVGGALFLVLVSILAGVFCYRRRRTFRGDYFAKNYIPPSDMQKESQIDVLHQDELDSYPDSVKKENKNPVNNLIRKDYLEEPEKTQWNNVENLTRFERPMDYYEDLKMGMKFVSDERYNESEDGLVSHVDGSVISRREWYV

The variants in this assay derive from B1. The following applies: with afad_rat Afdn.
As to F153L, the “effect of a mutation on the interaction” value is on record as “decreasing interaction”.

These data come from IntAct's records for PubMed 21880730.
